Columns and labels:
Assay type in all cases: cell-based, mouse
[1] = system: RelA/p65 binding to the CK-1 site of the G-CSF promoter; test: Chromatin immunoprecipitation (ChIP) assay in RAW264.7 cells; settings: SAA 1 μM or TNFα 50 ng/ml
Procedure: (§1) To investigate the mechanism for SAA-induced G-CSF production, the level of G-CSF transcript in SAA-stimulated BMDM was determined. […] The induction of G-CSF transcript peaked at 4 h after SAA stimulation. Since transcription of the G-CSF gene involves NF-κB binding to the RelA/p65 consensus element in the CK-1 site of the G-CSF promoter (Dunn et al., 1994; Hareng and Hartung, 2002), the role of NF-κB in SAA-stimulated G-CSF expression was determined. […] Using oligonucleotide probe based on the sequence of the CK-1 site (−161 to −152 in the G-CSF promoter), a protein •DNA complex (FIG. 2C) was identified. […] Inclusion of a RelA/p65 antibody blocking peptide in the assay abrogated the immunoprecipitation (FIG. 2D).
ChIP assay: Reagents were obtained from Upstate Biotechnology, and ChIP assay was performed as per manufacturers specifications with minor modifications. Briefly, a total of 1×10^7 RAW264.7 cells were harvested and resuspended in a serum-free DMEM medium absence or presence of 1 μM SAA, or 50 ng/ml of TNFα, and incubated for 30 or 60 min at 37° C. Following stimulation, cells were crosslinked and then washed and resuspended in SDS-lysis buffer, and were sonicated (4 times for 10 s each, with a setting at ‘4’ on a Fisher Sonic 60 dismembrenator). […] The PCR products were analyzed on a 2.5% agarose gel.

NF-κB = test: Electrophoresis mobility shift assay (EMSA) with BMDM nuclear extracts; settings: SAA-stimulated BMDM, after 30 min
Procedure: as §1
EMSA: Nuclear extracts were isolated using the method of Dignam et al (Dignam et al., 1983) with minor modifications. For each sample, 5×10^6 cells were used. Radiolabeling of the NF-κB probe and CK-1 probe, binding reactions, electrophoresis, and autoradiography were conducted as described previously (He et al., 2003).

G-CSF transcript in BMDM = test: Cytokine transcript induction in BMDM (RT-PCR, real-time PCR); settings: SAA 1 μM
Procedure: as §1
TLR2 mediates the effect of SAA in G-CSF expression and neutrophila: To further determine a role of TLR2 in SAA-stimulated G-CSF expression and neutrophilia, wild-type and tlr2^−/− BMDM were stimulated with SAA (1 μM) and the level of G-CSF transcript (FIG. 5A) was determined. SAA induced a 37-fold induction of the mouse G-CSF transcript within 2 h of stimulation. […] Under similar experimental conditions, SAA stimulated increases in the transcripts of M-CSF (encoded by csf1; 11-fold over basal) IL-12p40 (33-fold) and IL-1 receptor antagonist (2.7-fold). In tlr2^−/− BMDM, the SAA-stimulated induction of these transcripts was reduced by 84% (M-CSF), 86% (IL-12p40), and 80% (IL-1 receptor antagonist), respectively. […] The effects of TLR2 gene deletion on SAA-induced G-CSF production and neutrophilia were determined in vivo. Subcutaneous injection of SAA was carried out in wild-type and tlr2^−/− mice for up to 7 days.
Measurement of G-CSF expression: To measure the secreted G-CSF from human monocytes and mouse macrophages in vitro, cells were placed in serum-free DMEM medium and stimulated with the indicated ligands. Cell-free supernatants were collected by centrifugation at 1,000×g for 30 sec and assayed for human or mouse G-CSF using ELISA. Human PBMC were used as 2×10^6 cells/ml/sample, and mouse BMDM were seeded at 10^6 cells/ml and used as 0.5 ml/sample. To measure mouse plasma G-CSF, blood samples were collected and centrifuged at 1,000-2,000×g for 10 min at 4° C. Plasma samples were appropriately diluted and then checked for G-CSF concentration using ELISA. To measure mouse G-CSF transcripts, mouse […] (10^6 cells/ml, 5 ml/sample) were stimulated with 1 μM SAA for different periods of time. Total RNA was isolated with an RNeasy isolation kit (Qiagen) and cDNA was prepared with Superscript reverse transcriptase (Invitrogen). PCR amplification of G-CSF transcripts was accomplished with specific primers (F346: 5′-[…]-3′ (SEQ ID NO:3) and R980: 5′-CAGGGCTCACTGATTT TTTGG-3′) (SEQ ID NO:4), generating a 634-bp fragment. M-actin gene (a 469 bp fragment) was used for verification of equal loading and of RT-PCR efficiency. Real-time quantitative PCR was performed on a ABI PRISM 7000 Sequence Detection System (Applied Biosystems) as described previously (He et al., 2006). All data were analyzed with the ABI PRISM 7000 SDS software (version 1.1). Relative level of mRNA for G-CSF was determined by normalizing with β-actin mRNA level. The sequences of the primers used are: F229 (5′-[…]-3′) (SEQ ID NO:5) and R502 (5′-[…]-3′) (SEQ ID NO:6) for G-CSF and F413 (5′-CCCTAAGGCCAACCGTGAA-3′) (SEQ ID NO:7) and R882 (5′-[…]-3′) (SEQ ID NO:8) for β-actin.

B1: SAA: Recombinant human SAA purchased from PeproTech; major acute-phase protein of 104 amino acids (protein, UniProt P0DJI8 19-122, looked up)
Serum amyloid A-1 protein: RSFFSFLGEAFDGARDMWRAYSDMREANYIGSDKYFHARGNYDAAKRGPGGAWAAEVITDARENIQRFFGHGAEDSLADQAANEWGRSGKDPNHFRPAGLPEKY
pull-down of CK-1 DNA fragment by anti-RelA/p65 antibody [1]: able to pull-down the CK-1 DNA fragment | formation of NF-κB•DNA complex (NF-κB): stimulated the formation of NF-κB•DNA complex | reduction of G-CSF transcript induction in tlr2−/− vs wild-type BMDM (G-CSF transcript in BMDM): 94% | reduction of IL-1 receptor antagonist transcript induction in tlr2−/− BMDM (G-CSF transcript in BMDM): 80% | reduction of IL-12p40 transcript induction in tlr2−/− BMDM (G-CSF transcript in BMDM): 86% | reduction of M-CSF transcript induction in tlr2−/− BMDM (G-CSF transcript in BMDM): 84% | time of peak induction of G-CSF transcript (G-CSF transcript in BMDM; BMDM, RT-PCR): 4 h | induction of G-CSF transcript over basal level (G-CSF transcript in BMDM; tlr2−/− BMDM): 2 fold | increase in IL-1 receptor antagonist transcript (G-CSF transcript in BMDM; wild-type BMDM): 2.7 fold | increase in IL-12p40 transcript (G-CSF transcript in BMDM; wild-type BMDM): 33 fold | increase in M-CSF transcript over basal (G-CSF transcript in BMDM; wild-type BMDM): 11 fold | induction of mouse G-CSF transcript (G-CSF transcript in BMDM; wild-type BMDM, within 2 h, real-time PCR): 37 fold

From patent publication US7629135B2, “Toll-like receptor agonists and antagonists and methods of use thereof” (The Board of Trustees of the University of Illinois, priority 2006, dated 2009)
